The stoichiometry N is the number of molecules, sites or subunits per partner or assembly.

This is an account of results in PMC8271855.

The target of this test is Recombinant green fluorescent protein (CopGFP, amplified from the pTurboGFP plasmid). Kind of test: SEC. For orientation: SEC sorts molecules by how far they enter the pores of the column.

As to “Recombinant green fluorescent protein (CopGFP, amplified from the pTurboGFP plasmid) (natural protein)”, the stoichiometry N stood at 2.
